Results: paper PMC5665954, “Coupling fission and exit of RAB6 vesicles at Golgi hotspots through kinesin-myosin interactions” (Nature Communications, 2017)

B1: KIF20A fragment (603-665) (domain or fragment, UniProt P97329 603-665, looked up)
chain: EQWCSERLDNQKELMEELYEEKLKILKESLTTFYQEQIQERDEKIEELETLLQEAKQQPAAQQ
notes: Parallel right-handed coiled-coil dimer with an inter-helical cysteine bridge; also called KIF20A-RBD; source: E. coli BL21 (DE3), co-expressed with m20, purified (Glutathione Sepharose 4B, rTEV cleavage, Ni-NTA); not shown: GST, N-terminal, cleaved

Experiments:
[1] = target: GST-Myosin II-1148-1652 (human) (UniProt P35579); assay: ELISA; solid-phase assay: 96-well plates coated with 10 µg GST-GFP, GST-Myosin II-1148-1652 or GST-RAB6A:GTP; 0-40 µg 6xHis-RAB6:GTP or 6xHis-KIF20A-529-665 added; 20 mM Hepes pH 7.5, 100 mM NaCl, 5 mM MgCl2; detection with anti-6xHis antibodies, absorbance at 450 nm
[2] = target: the molecule itself; assay: crystal structure; complex of RAB6A-Q72L-8-195 and KIF20A-603-665 at 10 mg/ml; 100 mM Hepes pH 7.4, 200 mM ammonium sulfate, 24% PEG 8K, 2% isopropanol, 17 °C; 2 Å

Molecule	fold lower affinity than RAB6 and Myosin II-1148-1652 have for KIF20A-RBD-529-665 [1] [fold]	stoichiometry N [2]
6xHis-RAB6:GTP (from UniProt P20340 1-208) (natural protein)	5	
B1		2
